Measured values published in patent publication US12303551B2, “Cellular immunotherapy compositions and uses thereof” (CERO THERPEUTICS HOLDINGS, INC., priority 2018, dated 2025).

tested on: SCC152 cells; test: Elimination of GFP-expressing SCC152 target cells over time (quantification and time lapse imaging); assay type: cell-based; settings: 96-well co-culture, CD8+/E7 TCR + CD4+/CER + SCC152 1:1:1, compared to control
Protocol: Target SCC152 cells were co-cultured with CD8+ T cells transduced with HPV E7 TCR+CD4+ T cells transduced with a selected CER, or controls (CD8+ T cell transduced with HPV E7 TCR+CD4+ transduced control) at a 1:1:1 ratio. The number of target cells were quantified using imaging software. 0 hours, 24 hours, and 48 hours are shown from left to right.
(§1) FIG. 21 is time lapse imaging from 96-well co-culture experiments comprising CD8+ T cells transduced with HPV16 E7 TCR+CD4+ T cells transduced with CER5, CER17 or CER19 incubated with SCC152 target cells at a 1:1:1 ratio. SCC152 HPV+ target cells were quantified using automated cell counting software.
as §1, with “22” for “21”, “CER21, CER23” for “CER5, CER17”, “CER26” for “CER19”
as §1, with “23” for “21”, “CER103b, CER104” for “CER5, CER17”, “CER105” for “CER19”
as §1, with “24” for “21”, “CER106, CER116” for “CER5, CER17”, “CER27” for “CER19”
FIG. 57 is a bar graph showing quantification of loss of SCC152 HPV16+ target cells over time during co-culture assays. SCC152 cells were transduced with green fluorescent protein (GFP) and co-cultured with CD8+ T cells transduced with HPV16 E7 TCR and CD4+ T cells transduced with a selected CER (CER29, CER30, CER110, CER112, CER113, CER114, CER116, or CER117) or a CD4+ T cell control at a 1:1:1 ratio (CD8:CD4:target cell). The number of target cells was quantified at various time points during co-culture (0 hrs, 12 hrs, 24 hrs, and 36 hrs) using fluorescence microscopy and imaging software.
(§2) FIG. 58 are fluorescence micrograph images of the co-culture assay described in FIG. 57, showing clearance of the SCC152 cells (pink) as co-culture with CD8+ T cells transduced with HPV16 E7 TCR and CD4+ T cells transduced with a selected CER (columns from left to right: control, CER29, CER30, CER110, or CER112) progresses (rows from top to bottom: 0 hrs, 12 hrs, 24 hrs, and 36 hrs).
as §2, with “59” for “58”, “CER113, CER114, CER116,” for “CER29, CER30, CER110,”, “CER117)” for “CER112)”
(§3) Elimination of target SCC152 cells was also detected by quantifying green fluorescent protein expression by SCC152 cells over time (0 hr, 24 hr, 48 hr) during co-incubation with CD8+ T cells transduced with HPV16 E7 specific TCR+ CD4 T cells transduced with selected CER (see, FIG. 20).
as §3, with “hr, 12 hr,” for “hr,”, “hr, 36” for “hr, 48”, “TCR+ CD4+” for “TCR+ CD4”, “CER (CER29, CER30, CER110, CER112, CER113, CER114, CER116, or CER117)” for “CER”, “FIG. 57).” for “FIG. 20).”

| Molecule | number of SCC152 cells in time lapse imaging |
| --- | --- |
| CER103B: Chimeric engulfment receptor: Tim4 binding, Tim4 transmembrane, TLR8 and CD79b (185-213) signaling; SEQ ID NO: 138 (protein, CER103B, amino acids 1-22 are signal peptide) MSKGLLLLWLVTELWWLYLTPAASEDTIIGFLGQPVTLPCHYLSWSQSRNSMCWGKGSCPNSKCNAELLRTDGTRIISRKSTKYTLLGKVQFGEVSLTISNTNRGDSGVYCCRIEVPGWFNDVKKNVRLELRRATTTKKPTTTTRPTTTPYVTTTTPELLPTTVMTTSVLPTTTPPQTLATTAFSTAVTTCPSTTPGSFSQETTKGSAFTTESETLPASNHSQRSMMTISTDIAVLRPTGSNPGILPSTSQLTTQKTTLTTSESLQKTTKSHQINSRQTILIIACCVGFVLMVLLFLAFLHHLFYWDVWFIYNVCLAKVKGYRSLSTSQTFYDAYISYDTKDASVTDWVINELRYHLEESRDKNVLLCLEERDWDPGLAIIDNLMQSINQSKKTVFVLTKKYAKSWNFKTAFYLALQRLMDENMDVIIFILLEPVLQHSQYLRLRQRICKSSILQWPDNPKAEGLFWQTLRNVVLTENDSRYNNMYVDSIKQYDSKAGMEEDHTYEGLDIDQTATYEDIVTL | decreasing in numbers over time |
| CER105: Chimeric engulfment receptor: Tim4 binding, Tim4 transmembrane, TLR8 and Baff-R signaling; SEQ ID NO: 140 (protein, CER105, amino acids 1-22 are signal peptide) MSKGLLLLWLVTELWWLYLTPAASEDTIIGFLGQPVTLPCHYLSWSQSRNSMCWGKGSCPNSKCNAELLRTDGTRIISRKSTKYTLLGKVQFGEVSLTISNTNRGDSGVYCCRIEVPGWFNDVKKNVRLELRRATTTKKPTTTTRPTTTPYVTTTTPELLPTTVMTTSVLPTTTPPQTLATTAFSTAVTTCPSTTPGSFSQETTKGSAFTTESETLPASNHSQRSMMTISTDIAVLRPTGSNPGILPSTSQLTTQKTTLTTSESLQKTTKSHQINSRQTILIIACCVGFVLMVLLFLAFLHHLFYWDVWFIYNVCLAKVKGYRSLSTSQTFYDAYISYDTKDASVTDWVINELRYHLEESRDKNVLLCLEERDWDPGLAIIDNLMQSINQSKKTVFVLTKKYAKSWNFKTAFYLALQRLMDENMDVIIFILLEPVLQHSQYLRLRQRICKSSILQWPDNPKAEGLFWQTLRNVVLTENDSRYNNMYVDSIKQYSWRRRQRRLRGASSAEAPDGDKDAPEPLDKVIILSPGISDATAPAWPPPGEDPGTTPPGHSVPVPATELGSTELVTTKTAGPEQQ | decreasing in numbers over time |
| CER106: Chimeric engulfment receptor: Tim4 binding, Tim4 transmembrane, NFAM1 and TLR8 signaling; SEQ ID NO: 141 (protein, CER106, amino acids 1-22 are signal peptide) MSKGLLLLWLVTELWWLYLTPAASEDTIIGFLGQPVTLPCHYLSWSQSRNSMCWGKGSCPNSKCNAELLRTDGTRIISRKSTKYTLLGKVQFGEVSLTISNTNRGDSGVYCCRIEVPGWFNDVKKNVRLELRRATTTKKPTTTTRPTTTPYVTTTTPELLPTTVMTTSVLPTTTPPQTLATTAFSTAVTTCPSTTPGSFSQETTKGSAFTTESETLPASNHSQRSMMTISTDIAVLRPTGSNPGILPSTSQLTTQKTTLTTSESLQKTTKSHQINSRQTILIIACCVGFVLMVLLFLAFLLWNKKRMRGPGKDPTRKCPDPRSASSPKQHPSESVYTALQRRETEVYACIENEDGSSPTAKQSPLSQERPHRFEDDGELNLVYENLHHLFYWDVWFIYNVCLAKVKGYRSLSTSQTFYDAYISYDTKDASVTDWVINELRYHLEESRDKNVLLCLEERDWDPGLAIIDNLMQSINQSKKTVFVLTKKYAKSWNFKTAFYLALQRLMDENMDVIIFILLEPVLQHSQYLRLRQRICKSSILQWPDNPKAEGLFWQTLRNVVLTENDSRYNNMYVDSIKQY | decreasing in numbers over time |
